Assay: soluble on expression in E. coli; label from the status in PepcDB or PDB records

| Sequence | soluble on expression in E. coli |
| --- | --- |
| MSVATGSSETAGGASGGGARVFFQSPRGGAGGSPGSSSGSGSSREDSAPVATAAAAGQVQQQQQRRHQQGKVTVKYDRKELRKRLVLEEWIVEQLGQLYGCEEEEMPEVEIDIDDLLDADSDEERASKLQEALVDCYKPTEEFIKELLSRIRGMRKLSPPQKKSV | soluble |
| MVQNIPIYIQIHDKIKEDIEKGVWSIGDRLPSERELALKFDVSRMTLRQAIQTLADEGILERKIGSGTYVARKKVQETMTGTTSFTEITLSQNRVPSSRTVSYFVAKPSSSEMEKLQLGPEDSILRMERIRFADDIPICFEVASIPYSLVSQYGKSEITNSFYKTLEAKSGHKIGHSNQTISAVQASEQIAEYLEIKRGDAILRVRQVSYFENGLPFEYVRTQYAGSRFEFYLEK | not soluble |
| MSEQTLEYFLNKGTIRRKDAADIEWYHAANSKSKLMEALRGSAQMIEADVLLRGADPEEPIMAHPPAKDSDITLQDWLKEVVKTDKGIKLDFKSLAAVSQSMSLLEEIRDQLKGPVWINADILPGPGGTATPVDPHVFLQEVAQRSENDVLSLGWTTGWTANVDNPGYSWEMVHQMEELCRPLKQPVTFPVRASLLPMSFPQFQWLLEQSDRSEILH | not soluble |
| MGHHHHHHSHMDDKKKKRSPKPCLAQPAQAPGTLRRVPVPTSHSGSLALGLPHLPSPKQRAKFKRVGKEKCRPVLAGGGSGSAGTPLQHSFLTEVTDVYEMEGGLLNLLNDFHSGRLQAFGKECSFEQLEHVREMQEKLARLHFSLDVCGEEEDDEEEEDGVTEGLPEEQKKTMADRNLDQLLSNLEDLSNSMYPFQGTRLCVCVPERSVSSSPALQEYSHTTNFPTSCSPVRFSHRLPKPRYRNLEFPQN | not soluble |
| MGSDKIHHHHHHMSHDTVSPGLSLREIRAILAVAEQRGFSSAARRLNISQSSLSRTIHRAESVLAIRLFQRGWGGAEPTPEGEIVRQHCTQVMAELLHERDALMAAGLTRLPLPLDLRWRDLACVAAVVHTGKTTTAAKWLRTSQSSVSRTLGAISVRLGSPLFQRSGEGLRAEPLAERLVALRDRMCARMQPLQERLGHLAGEVTGRLAVGMTPFCEQERVAQAFGDLLVAYPQLRLSAVTGSYVMLTDALRCGEIDLVVGLLRELGEDDELAELPLAEEAITVLARSDHPCAVRSVSMEDLARQTWIVAPAGTPIRAYFERLFLGMGKTPPVQTCEIVTFHLAESMVRESQSLALLLYSPRKVRELPPGLVRVPVTLPDNRRHIGVTYRRDAGLSFTQRQFIDGLAKRFASDDDAEGNAP | not soluble |
| MGSDKIHHHHHHMKKLALISLDGNGIYNLKYMPFLSELAEKGDIFTVDSIFPTLTDLVHTTVMTGVEPRHHWVVENGYYDRLSGVRVKFYEYDVAFNPHKVIKAPLIQDILRQRGVRIASVSGYTMPPFSNVDVRIFPPFFSSDELYRRHGRDWKKDVWVLNSALYLYEECKPDLLLVHFASIDGMQHDHGPESREALKAVETVDSAIRALWERLKDEYAFIIFADHGQEEVHTWVNLREYLRNKGIETLRVSSGGGVHVYLKDPREREDAYEVLRRAPGVKAVFLREDLPYLNAPVSGDLIVSAKEGFWFCHHRECKGIKGKSYWVRGMHGSLNERVVKVPLVLWNLEAKKEEATLYDIAPTILKFFGVEKRVEMIGKSLI | not soluble |
| MSASVSLTTPVSVSCLINDVNPSVKAKKEDATAVTTTQAPKIAEAIHRSTPTLADNVLYDSTSYTHGVTTGSTNVPISSGQRPQQADYSLALLAKDVYAPTSGNLNGFVRLSDERLLAAGIDPTALSDSASGFLAGIYSDNQQYVLSFAGTNDRHDWLSNIRQAVGYEDVQYNEAVALGKTAKMAFGDALVITGHSLGGGLAATAALATGTFAVTFNAAGVAKNTLKRLGMDSAKARRSAENGGIRSYSEKYDLLTGIQELTSLIPNAVGHKIVLANSDKLTGVDDWLPHKHLERRISAHSIEKVLSSMSEQQPWERRYV | not soluble |
